The target of this experiment is HSP90β (human) (UniProt P08238). The experiment in a line: cryo-EM structure; HSP90–CDC37–BRAF^V600E complex incubated with PP5 D274N, purified by SEC, cross-linked with 1 mM BS3; one sample gave three classes: HCK (3.4 Å), HCK-P open (4.2 Å), HCK-P closed (3.9 Å); PP5 modelled by rigid-body docking. (In general: In gel filtration, larger molecules generally elute earlier.)

“HSP90β, P08238 1-724 (natural protein; phosphorylation at Ser226 and Ser255 found by mass spectrometry; phosphorylation at Ser226 and Ser255 found by mass spectrometry; other documents disagree on this pair)” had a stoichiometry N of 2.

Usually stoichiometry N stands for a count of units in the complex or per binding partner.

The values above are taken from article PMC9709061.
